Assay [1] addresses T1, Human MerTK on hMerTK-expressing cells (human, UniProt Q12866 21-999).
T1 sequence: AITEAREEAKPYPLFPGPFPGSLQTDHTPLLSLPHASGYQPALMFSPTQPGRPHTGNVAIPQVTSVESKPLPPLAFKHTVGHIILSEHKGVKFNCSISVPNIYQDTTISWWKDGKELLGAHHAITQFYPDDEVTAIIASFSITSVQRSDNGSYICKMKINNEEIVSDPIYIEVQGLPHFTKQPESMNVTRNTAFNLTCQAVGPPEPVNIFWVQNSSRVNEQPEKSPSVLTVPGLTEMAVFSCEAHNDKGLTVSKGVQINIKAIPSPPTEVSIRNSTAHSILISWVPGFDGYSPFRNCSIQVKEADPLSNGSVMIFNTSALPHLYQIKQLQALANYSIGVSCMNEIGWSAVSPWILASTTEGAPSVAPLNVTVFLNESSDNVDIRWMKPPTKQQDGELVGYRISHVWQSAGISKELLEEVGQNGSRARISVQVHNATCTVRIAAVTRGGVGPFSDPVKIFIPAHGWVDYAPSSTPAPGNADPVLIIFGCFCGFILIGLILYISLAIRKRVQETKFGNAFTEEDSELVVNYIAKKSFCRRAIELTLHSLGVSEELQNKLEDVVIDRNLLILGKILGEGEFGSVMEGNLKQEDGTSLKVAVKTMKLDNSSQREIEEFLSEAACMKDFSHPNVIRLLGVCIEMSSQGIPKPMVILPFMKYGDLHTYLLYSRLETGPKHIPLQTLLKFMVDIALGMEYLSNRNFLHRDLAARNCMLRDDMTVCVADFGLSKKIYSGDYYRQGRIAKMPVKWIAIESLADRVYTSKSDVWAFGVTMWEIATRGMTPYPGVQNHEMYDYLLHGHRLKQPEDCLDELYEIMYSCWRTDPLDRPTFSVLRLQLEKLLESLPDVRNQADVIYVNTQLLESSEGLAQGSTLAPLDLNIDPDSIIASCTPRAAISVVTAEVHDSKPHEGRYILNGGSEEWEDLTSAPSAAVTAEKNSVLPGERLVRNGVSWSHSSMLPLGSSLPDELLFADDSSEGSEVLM
Kind of assay: cell-based or functional assay.

Assay [2] has as its target T2, Recombinant soluble extracellular domain of cynomolgus monkey MerTK (cynomolgus monkey, UniProt Q12866 21-505 (human entry)).
T2 construct: SPR analyte; also called cMerTK; Cynomolgus MerTK
T2 chain: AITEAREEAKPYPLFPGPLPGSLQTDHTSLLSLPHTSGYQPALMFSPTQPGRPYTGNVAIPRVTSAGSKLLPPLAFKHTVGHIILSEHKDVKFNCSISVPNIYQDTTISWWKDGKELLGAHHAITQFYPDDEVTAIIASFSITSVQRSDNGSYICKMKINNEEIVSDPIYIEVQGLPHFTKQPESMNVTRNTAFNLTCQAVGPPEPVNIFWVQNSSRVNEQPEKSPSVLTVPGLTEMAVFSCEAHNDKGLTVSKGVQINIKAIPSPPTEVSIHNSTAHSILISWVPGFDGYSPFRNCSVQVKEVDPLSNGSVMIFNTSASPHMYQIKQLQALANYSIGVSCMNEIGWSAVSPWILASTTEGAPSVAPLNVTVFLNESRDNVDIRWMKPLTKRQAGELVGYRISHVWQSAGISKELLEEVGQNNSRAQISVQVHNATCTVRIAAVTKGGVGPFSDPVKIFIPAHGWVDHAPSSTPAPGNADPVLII
Kind of assay: SPR, mAb captured, soluble MerTK ECD as analyte, 37 C. As to the method: (§1) MerTK Abs were captured on the chip. Recombinant soluble forms of the extracellular domains of human, cynomolgus monkey, and mouse MerTK polypeptide were injected as analytes at multiple concentrations each. The resulting sensorgrams were double-referenced and fitted to a 1:1 Langmuir binding model with mass transport.

Assay [3] has as its target T3, Recombinant soluble extracellular domain of human MerTK (human, UniProt Q12866 21-505).
T3 construct: SPR analyte; also called hMerTK
T3 sequence: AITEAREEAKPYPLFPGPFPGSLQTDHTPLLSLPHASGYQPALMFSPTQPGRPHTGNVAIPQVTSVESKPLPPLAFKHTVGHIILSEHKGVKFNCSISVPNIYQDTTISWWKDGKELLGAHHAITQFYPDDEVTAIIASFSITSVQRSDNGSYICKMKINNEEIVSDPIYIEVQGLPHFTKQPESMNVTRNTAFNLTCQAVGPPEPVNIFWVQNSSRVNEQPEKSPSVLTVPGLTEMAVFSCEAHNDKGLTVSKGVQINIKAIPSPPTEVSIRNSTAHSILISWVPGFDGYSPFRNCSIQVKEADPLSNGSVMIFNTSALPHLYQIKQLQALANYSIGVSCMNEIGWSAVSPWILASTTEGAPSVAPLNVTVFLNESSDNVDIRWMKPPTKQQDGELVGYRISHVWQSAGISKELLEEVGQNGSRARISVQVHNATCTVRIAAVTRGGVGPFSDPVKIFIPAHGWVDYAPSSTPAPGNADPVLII
Described as above. On the procedure:
as §1

Substitutions are numbered along the chain they refer to.

B1: HuMAb 4K10 (antibody, human IgG1, kappa, V domains shown)
VH: QVQLQQWGAGLLKPSETLSLTCAVYGGSFSGYYWSWLRQPPGKGLEWIGEISHSGSTNYNPSLKSRVTISVDTSKNQFSLKLSSVTAADTAVYYCARALSRYWYFDLWGRGTLVTVSS
VL: EIVLTQSPATLSLSPGERATLSCRASQSASNYLAWYQQKPGQAPRLLIYDASNRATGIPARFSGSGSGTDFTLTISSLEPEDFAVYYCYQRSQWPISFGQGTRLEIKR
notes: Human anti-hMerTK mAb, Bin 3
As a reminder, the Kd is the concentration at which binding is half-saturated. Broadly, the koff is the first-order rate constant of dissociation. One may read the kon as the rate constant with which the complex forms. On to B1, for which, in assay [1], the “Inhibition of Efferocytosis IC50” value is greater than 10 nM and the “Signaling Assay, hMerTK with Gas6, pSTAT1 IC50 (nM)” value (shortened to “Signaling Assay, hMerTK with Gas6”) was determined as 5.42 nM. Moreover, in assay [2], the Kd came to 31.3 nM, the koff was 0.00379 s⁻¹, the kon came out at 121000 M⁻¹ s⁻¹ and the t1/2 came out at 3 min. In assay [3], the Kd is 27.8 nM, the koff worked out at 0.00336 s⁻¹, the kon stood at 121000 M⁻¹ s⁻¹ and the t1/2 was 3.4 min.

B2: HuMAb 8N42 (antibody, V domains shown)
VH: QVQLQQWGAGLLKPSETLSLTCAVYGGSFSIYYWSWIRQPPGKGLELIGEINDEGNTNYNPSLKSRVTISVDTSKNQFSLKLSSVTAADTAVYYCARGGTGDIHAFDIWGQGTMVTVSS
VL: DIQMTQSPSSLSASVGDRVTITCRASQGISKWLAWYQQKPEKAPKSLIYAASSLQSGVPSRFSGSGSGTDFTLTISSLQPEDFATYYCQQYNSYPWTFGQGTKVEIKR
notes: Human anti-hMerTK mAb, Bin 1
As for B2, in assay [1], the “Inhibition of Efferocytosis IC50” value was determined as 0.047 nM; the “Signaling Assay, hMerTK with Gas6” value is 0.572 nM; the “Signaling Assay, hMerTK without Gas6, pSTAT1 IC50 (nM)” value (from here on “Signaling Assay, hMerTK without Gas6”) was greater than 100 nM. For the same molecule, in assay [2], the Kd is 14 nM, the koff turned out to be 0.0014 s⁻¹, the kon came to 100000 M⁻¹ s⁻¹ and the t1/2 was 8.3 min. Moreover, in assay [3], the Kd amounted to 5.7 nM, the koff amounted to 0.00168 s⁻¹, the kon was 299000 M⁻¹ s⁻¹ and the t1/2 came to 6.9 min.

B3: HuMAb 1B4 (antibody, human IgG1, kappa, V domains shown)
VH: QLQLQESGPGLVKPSETLSLTCAVSGYSISSGNYWGWIRQSPGKGLEWIGSVDHSGSTYYSPSLKSRVTISVDTSKNQFSLKLNSVTAADTADYYCARNTMIRGVMDWFDPWGQGTLVTVSS
VL: AIQLTQSPSSLSASVGDRVTITCRASQGISSALAWYQQKPGKAPKVLIYDASSLESGVPSRFSGSGSGTDFTLTISSLQPEDFATYYCQQFRSYPTFGQGTKVEIKR
notes: Human anti-hMerTK mAb, Bin 1
Regarding B3, in assay [1], the “Inhibition of Efferocytosis IC50” value was found to be 0.072 nM; the “Signaling Assay, hMerTK with Gas6” value was 0.33 nM; the “Signaling Assay, hMerTK without Gas6” value is greater than 100 nM. In assay [2], the Kd turned out to be 54.9 nM, the koff turned out to be 0.00796 s⁻¹, the kon was 145000 M⁻¹ s⁻¹ and the t1/2 came to 1.5 min. For the same molecule, in assay [3], the Kd came out at 34.4 nM, the koff stood at 0.00844 s⁻¹, the kon came out at 250000 M⁻¹ s⁻¹ and the t1/2 worked out at 1.4 min.

B4: HuMAb 22I16 (antibody, human IgG1, kappa, V domains shown)
VH: EVQLVESGGGLVQPGGSLRLSCAASGFTFSSYSMNWVRQAPGKGLEWVSYIISGSDTIFYADSVKGRFTISRDNAKNSLYLQMNSLRDEDTAVYYCARDETVVRGVINYFDYWGQGTLVTVSS
VL: B3 VL with A25S, V46L, R92I, K102R, V103L
notes: Human anti-hMerTK mAb, Bin 1; also called 22116
For B4, in assay [1], the “Inhibition of Efferocytosis IC50” value worked out at 0.352 nM; the “Signaling Assay, hMerTK with Gas6” value worked out at 3.41 nM; the “Signaling Assay, hMerTK without Gas6” value is greater than 100 nM. In assay [2], the Kd is 24.7 nM, the off-rate (koff) was determined as 0.00126 s⁻¹, the kon is 50900 M⁻¹ s⁻¹ and the t1/2 is 10.2 min. Besides, in assay [3], the Kd was determined as 10.6 nM, the koff amounted to 0.000775 s⁻¹, the kon worked out at 73500 M⁻¹ s⁻¹ and the t1/2 is 14.9 min.

B5: HuMAb 25J60 (antibody, human IgG1, kappa, V domains shown)
VH: QVQLVQSGAEVKKPGASVKVSCKTSGNTQIRYYMYWVRQAPGQGLEWMGILNPNQDQTTYAQKFQGRVTMTRDTSTSTVYMELSSLRSEDTAVYYCATTYRYYMDVWGQGTTVTVSS
VL: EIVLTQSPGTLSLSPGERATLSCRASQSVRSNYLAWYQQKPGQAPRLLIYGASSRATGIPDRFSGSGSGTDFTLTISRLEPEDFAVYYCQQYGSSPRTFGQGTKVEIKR
notes: Human anti-hMerTK mAb, Bin 2, derived from HuMAb 25B10 by optimization
For B5, in assay [1], the “Inhibition of Efferocytosis IC50” value was determined as 0.051 nM; the “Signaling Assay, hMerTK with Gas6” value was determined as 0.093 nM; the “Signaling Assay, hMerTK without Gas6” value is greater than 100 nM. In addition, in assay [2], the Kd came out at 2.5 nM, the koff worked out at 0.00099 s⁻¹, the kon turned out to be 400000 M⁻¹ s⁻¹ and the t1/2 stood at 11.7 min. Also, in assay [3], the equilibrium dissociation constant (Kd) turned out to be 2.3 nM, the koff came to 0.000975 s⁻¹, the kon turned out to be 421000 M⁻¹ s⁻¹ and the t1/2 was 11.9 min.

B6: HuMAb 25J80 (antibody, human IgG1, kappa, V domains shown)
VH: B5 VH with N27R, Q29F, Y35H, L51I, N52W, Q55G, R101K, Y103A
VL: EIVLTQSPGTLSLSPGERATLSCRASQSVRSNYLAWYQQKPGQAPRLLIYGASSRATGIPDRFSGSGSGTDFTLTISRLEPEDFAVYYCQQYESPPRTFGQGTKVEIKR
notes: as for B5
For the molecule B6, in assay [1], the “Inhibition of Efferocytosis IC50” value amounted to 0.093 nM; the “Signaling Assay, hMerTK with Gas6” value was 0.227 nM; the “Signaling Assay, hMerTK without Gas6” value is greater than 100 nM. In addition, in assay [2], the dissociation constant Kd was determined as 4.5 nM, the koff stood at 0.00124 s⁻¹, the kon worked out at 274000 M⁻¹ s⁻¹ and the t1/2 worked out at 4.5 min. Also, in assay [3], the Kd was determined as 4.1 nM, the koff was 0.00123 s⁻¹, the kon was 297000 M⁻¹ s⁻¹ and the t1/2 amounted to 9.6 min.

(Values after patent US20210395392A1 (Bristol-Myers Squibb, published 2021).)
